# Experimental data reported in patent US20240189458A1, “METHODS FOR IN VIVO DELIVERY OF MICROBES TO HUMAN MICROENVIRONMENTS” (priority 2021, published 2024).
# Ends that are not written are not given here.
# Key:
# Type in all cases: cell-based
# [1] = biological target: T1, S. Typhimurium PhoPQ (Salmonella typhimurium, UniProt P0DM80); assay: SLAY-TCS sort-seq screen of KB1 human AMP library; conditions: for sort-seq fold activation of PhoPQ relative to no-peptide control: KB1 library, 500 μM IPTG
# T1 construct: expressed in transfected cells; host or cells: E. coli BW30007 (lacks E. coli phoPQ) with the cassette integrated in the genome = strain KB1
# Excerpt: PhoQ senses diverse human AMPs: To characterize the response of PhoQ to most human AMPs, 133 human AMPs in the Antimicrobial Peptide Database (APD3) were first identified). From this set, 16 (12%) were excluded exceeding 104 amino acids in length due to size restrictions of commercial oligonucleotide synthesis. The remaining set of 117 AMPs vary in charge, length, hydrophobicity, and secondary structure, and comprise 11 clusters of high sequence similarity. These clusters include families of mature AMPs processed from a single precursor peptide (e.g. products of cathelicidin, human defensin 5, and β-amyloid) and peptides with high sequence similarity that are produced from distinct genes (e.g. CXCL1, CXCL2, and CXCL3).
# This plasmid library was transformed into KB1. Using Illumina NGS, it was validated that sequences encoding all 117 human AMPs, along with no-peptide controls, are present in the KB1 human AMP library. Variants of human AMPs were also identified that likely resulted from errors in oligo synthesis or plasmid assembly. As expected, these variants generally had lower representation in the library than the human AMPs.
# Next, sort-seq was utilized to characterize the effect of each peptide on PhoPQ activity. First, the KB1 human AMP library was grown in the presence of 500 μM IPTG, which induces sufficient expression of positive control AMPs to strongly activate PhoPQ (FIG. 25D). Then, FACS was used to sort these bacteria into eight logarithmically-spaced mNG fluorescence bins (FIG. 26B). The bins were designed to span the fluorescence distributions of negative (no peptide) and positive (C18G) PhoQ activity control strains measured on the same day. […] Next, Illumina NGS was used to sequence the peptide-encoding DNA regions from bacteria in each bin and estimated the mean mNG fluorescence level of each strain using the relative abundances of peptide-encoding sequences across fluorescence bins. These estimated fluorescence values were divided by the estimated mean fluorescence of the no-peptide control to calculate the fold activation of PhoPQ in response to each peptide in the library.
# [2] = biological target: T1, S. Typhimurium PhoPQ; assay: SLAY-TCS: surface-displayed peptides in KB1, single strains, flow cytometry; conditions: KB1, IPTG-induced display
# Excerpt: In SLAY, peptides of interest are expressed at the C-terminus of a fusion protein consisting of the Lpp signal peptide, an OmpA transmembrane domain, and a flexible tether. […] In addition to PvirK-mNG, each of these plasmids encodes a SLAY fusion protein under the control of an isopropyl-β-D-thiogalactoside (IPTG)-inducible promoter (Ptac) (FIG. 25). Ptac is tightly repressed, to avoid potential toxicity arising from leaky AMP expression in the absence of inducer. […] Finally, a no-peptide control plasmid encoding a stop codon was constructed instead of a peptide following the OmpA transmembrane domain.
# [3] = biological target: T2, KB1 PhoQ H277A (Salmonella typhimurium, UniProt P0DM80, H277A); assay: Negative control strains (S. Typhimurium lacking phoQ; KB1 PhoQ H277A)
# T2 construct: expressed in transfected cells; host or cells: E. coli KB1 derivative (BW30007 background)
# T2 sequence (P0DM80 1-487 H277A): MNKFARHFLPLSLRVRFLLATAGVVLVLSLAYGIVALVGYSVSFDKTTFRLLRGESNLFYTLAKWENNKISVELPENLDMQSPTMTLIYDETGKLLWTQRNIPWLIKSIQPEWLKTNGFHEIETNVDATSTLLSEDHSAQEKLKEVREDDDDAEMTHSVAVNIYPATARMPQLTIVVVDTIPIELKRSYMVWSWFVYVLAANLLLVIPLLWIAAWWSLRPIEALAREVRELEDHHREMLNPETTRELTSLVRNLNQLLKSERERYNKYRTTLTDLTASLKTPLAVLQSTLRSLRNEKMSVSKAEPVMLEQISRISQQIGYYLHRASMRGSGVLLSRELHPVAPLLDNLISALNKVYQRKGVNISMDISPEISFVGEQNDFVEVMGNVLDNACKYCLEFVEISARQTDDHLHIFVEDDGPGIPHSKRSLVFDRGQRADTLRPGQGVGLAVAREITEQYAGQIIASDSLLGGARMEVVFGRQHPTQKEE
# Procedure: This plasmid was transformed into both S. Typhimurium and KB1 to measure PhoPQ activation by the positive control AMP LL-37. […] LL-37 response was also measured in two negative control strains: an S. Typhimurium strain lacking phoQ and a KB1 derivative in which the catalytic histidine of PhoQ was mutated to an alanine (KB1 PhoQ H277A).
# T1 sequence (P0DM80 whole entry): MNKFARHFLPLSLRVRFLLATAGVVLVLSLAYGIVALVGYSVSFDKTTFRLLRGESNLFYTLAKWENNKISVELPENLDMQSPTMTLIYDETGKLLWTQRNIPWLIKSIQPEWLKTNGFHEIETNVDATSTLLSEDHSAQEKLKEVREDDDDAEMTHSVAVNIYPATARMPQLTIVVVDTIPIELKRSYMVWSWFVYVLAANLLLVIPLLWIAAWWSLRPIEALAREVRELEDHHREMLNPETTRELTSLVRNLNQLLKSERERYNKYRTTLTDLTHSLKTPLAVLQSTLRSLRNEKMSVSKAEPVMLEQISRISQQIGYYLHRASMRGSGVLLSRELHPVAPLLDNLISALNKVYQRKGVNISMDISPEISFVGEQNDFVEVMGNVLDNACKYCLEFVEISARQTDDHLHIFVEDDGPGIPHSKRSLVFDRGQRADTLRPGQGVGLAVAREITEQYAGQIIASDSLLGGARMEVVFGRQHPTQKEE
Substance,human AMPs sensed by PhoPQ [1],PhoPQ activation by surface-displayed peptide [2],sort-seq fold activation of PhoPQ relative to no-peptide control [1],further results
CCL20,senses,,,
"HNP-1: human defensin, negative control peptide",,do not activate PhoPQ,does not activate mNG expression,
LL-37,,,5.2 fold,LL-37 response in negative control strains ([3]; S. Typhimurium lacking phoQ and KB1 PhoQ H277A): Neither negative control strain responds
NPY: neuropeptide Y,senses,,,
"hBD3: human β-defensin 3 (GIINTLQKYYCRVRGGRCAVLSCLPKEEQIGKCSTRGRKCCRRKK; ends and bridges not checked; cysteine pairing not given here; UniProt P81534 23-67, looked up)",senses,,,
"protegrin-1: positive control AMP containing disulfide bonds (RGGRLCYCRRRFCVCVGR; disulfide (positions not given here); ends not checked; also: disulfide bonds, pairing not given here; UniProt P32194 131-148, looked up)",,activates PhoPQ,,PhoPQ activation by surface-displayed AMPs in PhoQ H277A strain ([3]; KB1 PhoQ H277A): slight increase in mNG fluorescence
